Measured values taken from article PMC11201429.

Biological target: thrombin (human alpha-thrombin not specified) (human, UniProt P00734;P00734 328-363;364-622)
Assay: QCM-D; aptamer immobilised on streptavidin/biotin-PE/POPC bilayer; thrombin 1-25 ug/mL, shift 3 to 81 Hz; LOD 29 nM (not a Kd); PBS with CaCl2 and MgCl2 (concentrations not given), 0.1% BSA, 37 C; aptamer 0.5 uM loaded, heated to 95 C for 5 min and cooled to RT

CGCCTAGGTTGGGTAGGGTGGTGGCG (structured_DNA, 5'-biotin) [NU172 thrombin aptamer]: binds.
